Assay results as given in the supplement of paper PMC5998384.

What was measured:
[1] = system: HeLa Kyoto; assay: solubility in G1/S (NP-40 vs SDS abundance) (log2 ratio); higher = more soluble; conditions: cell cycle stage: G1/S
[2] = system: HeLa Kyoto; assay: solubility change mitosis vs G1/S (difference of NP-40 vs SDS log2 ratios) (log2 ratio difference); higher = more soluble in mitosis
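Throughout, for solubility change mitosis vs G1/S (difference of NP-40 vs SDS log2 ratios): synchronized HeLa Kyoto cells (double thymidine block for G1/S, nocodazole release for mitosis), protein amounts in NP-40 versus SDS lysates quantified by mass spectrometry, three biological replicates.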
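Throughout, for solubility in G1/S (NP-40 vs SDS abundance): HeLa Kyoto cells arrested at G1/S by double thymidine block, proteins quantified by TMT10plex mass spectrometry in mild NP-40 versus SDS extracts, three biological replicates.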

Row | Sequence | solubility in G1/S (log2) [1] | solubility change mitosis (log2) [2]
1 | MSTSSLRRQMKNIVHNYSEAEIKVREATSNDPWGPSSSLMSEIADLTYNVVAFSEIMSMIWKRLNDHGKNWRHVYKAMTLMEYLIKTGSERVSQQCKENMYAVQTLKDFQYVDRDGKDQGVNVREKAKQLVALLRDEDRLREERAHALKTKEKLAQTATASSAAVGSGPPPEAEQAWPQSSGEEELQLQLALAMSKEEADQPPSCGPEDDAQLQLALSLSREEHDKEERIRRGDDLRLQMAIEESKRETGGKEESSLMDLADVFTAPAPAPTTDPWGGPAPMAAAVPTAAPTSDPWGGPPVPPAADPWGGPAPTPASGDPWRPAAPAGPSVDPWGGTPAPAAGEGPTPDPWGSSDGGVPVSGPSASDPWTPAPAFSDPWGGSPAKPSTNGTTAAGGFDTEPDEFSDFDRLRTALPTSGSSAGELELLAGEVPARSPGAFDMSGVRGSLAEAVGSPPPAATPTPTPPTRKTPESFLGPNAALVDLDSLVSRPGPTPPGAKASNPFLPGGGPATGPSVTNPFQPAPPATLTLNQLRLSPVPPVPGAPPTYISPLGGGPGLPPMMPPGPPAPNTNPFLL [EPN1] | 0.197 | 0.235
2 | MSVDPMTYEAQFFGFTPQTCMLRIYIAFQDYLFEVMQAVEQVILKKLDGIPDCDISPVQIRKCTEKFLCFMKGHFDNLFSKMEQLFLQLILRIPSNILLPEDKCKETPYSEEDFQHLQKEIEQLQEKYKTELCTKQALLAELEEQKIVQAKLKQTLTFFDELHNVGRDHGTSDFRESLVSLVQNSRKLQNIRDNVEKESKRLKIS [MIS12] | -0.177 | 0.259
3 | MSVTEEDLCHHMKVVVRVRPENTKEKAAGFHKVVHVVDKHILVFDPKQEEVSFFHGKKTTNQNVIKKQNKDLKFVFDAVFDETSTQSEVFEHTTKPILRSFLNGYNCTVLAYGATGAGKTHTMLGSADEPGVMYLTMLHLYKCMDEIKEEKICSTAVSYLEVYNEQIRDLLVNSGPLAVREDTQKGVVVHGLTLHQPKSSEEILHLLDNGNKNRTQHPTDMNATSSRSHAVFQIYLRQQDKTASINQNVRIAKMSLIDLAGSERASTSGAKGTRFVEGTNINRSLLALGNVINALADSKRKNQHIPYRNSKLTRLLKDSLGGNCQTIMIAAVSPSSVFYDDTYNTLKYANRAKDIKSSLKSNVLNVNNHITQYVKICNEQKAEILLLKEKLKAYEEQKAFTNENDQAKLMISNPQEKEIERFQEILNCLFQNREEIRQEYLKLEMLLKENELKSFYQQQCHKQIEMMCSEDKVEKATGKRDHRLAMLKTRRSYLEKRREEELKQFDENTNWLHRVEKEMGLLSQNGHIPKELKKDLHCHHLHLQNKDLKAQIRHMMDLACLQEQQHRQTEAVLNALLPTLRKQYCTLKEAGLSNAAFESDFKEIEHLVERKKVVVWADQTAEQPKQNDLPGISVLMTFPQLGPVQPIPCCSSSGGTNLVKIPTEKRTRRKLMPSPLKGQHTLKSPPSQSVQLNDSLSKELQPIVYTPEDCRKAFQNPSTVTLMKPSSFTTSFQAISSNINSDNCLKMLCEVAIPHNRRKECGQEDLDSTFTICEDIKSSKCKLPEQESLPNDNKDILQRLDPSSFSTKHSMPVPSMVPSYMAMTTAAKRKRKLTSSTSNSSLTADVNSGFAKRVRQDNSSEKHLQENKPTMEHKRNICKINPSMVRKFGRNISKGNLR [KIF18A] | -0.624 | -0.237
4 | MSYCRQEGKDRIIFVTKEDHETPSSAELVADDPNDPYEEHGLILPNGNINWNCPCLGGMASGPCGEQFKSAFSCFHYSTEEIKGSDCVDQFRAMQECMQKYPDLYPQEDEDEEEEREKKPAEQAEETAPIEATATKEEEGSS [CHCHD4] | -0.518 | -0.667
5 | MSYMLPHLHNGWQVDQAILSEEDRVVVIRFGHDWDPTCMKMDEVLYSIAEKVKNFAVIYLVDITEVPDFNKMYELYDPCTVMFFFRNKHIMIDLGTGNNNKINWAMEDKQEMVDIIETVYRGARKGRGLVVSPKDYSTKYRY [TXNL4A] | -0.625 | 0.224
6 | MTFQFNFTIEDHLENELTPIRDGALTLDSSKELSVSESQKGEERDRKCSAEQFDLPQDHLWEHKSMENAAPSQDTDSPLSAASSSRNLEPHGKQPSLRAAKEHAMPKDLKKMLENKVIETLPGFQHVKLSVVKTILLKENFPGENIVSKSFSSHSDLITGVYEGGLKIWECTFDLLAYFTKAKVKFAGKKVLDLGCGSGLLGITAFKGGSKEIHFQDYNSMVIDEVTLPNVVANSTLEDEENDVNEPDVKRCRKPKVTQLYKCRFFSGEWSEFCKLVLSSEKLFVKYDLILTSETIYNPDYYSNLHQTFLRLLSKNGRVLLASKAHYFGVGGGVHLFQKFVEERDVFKTRILKIIDEGLKRFIIEITFKFPG [METTL18] | -0.31 | 0.0132
7 | MTQQPQDDFDRSVEDAQAWMKAVQDQLQVNDNTQGPRAALEARLWETEKICQLEPEGRVRVDLVLRMAEALLACCPGDQKPGILARLKDIKAQWEETVTYMTHCHSRIEWVWLHWSEYLLARDEFYRWFQKMMVTLEPHIELQLGLKEKQWQLSHAQVLLHNVDNQAVLLDRLLEEAASLFNRIGDPSVDEDAQKRMKAEYDAVKAKAQKRVDLLEQVAREHEEYQAGVDEFQLWLKAVVEKVNGCLGRNCKLPITQRLSTLQDIAKDFPRGEESLETLEEQSAGVIRNTSPLGAEKITGELEEMRKVLEKLRALWEEEEERLRGLLRSRGAWEQQIKQLEAELSEFRMVLQRLAQEGLQPAAKAGTEDELVAHWRRYSATRAALASEEPRVDRLQAQLKELIVFPHNLKPLSDSVIATIQEYQSLKVKSARLRNAAAVELWQHFQRPLQDLQLWKALAQRLLEVTASLPDLPSLHTFLPQIEAALMESSRLKELLTMLQLKKDLLIGIFGQERATALLEQVAGSMRDRDLLHNSLLQRKSKLQSLLAQHKDFGAAFEPLQRKLLDLQVRVQAEKGLQRDLPGKQAQLSRLQGLQEEGLDLGAQMEAARPLVQENPNHQHKMDQLSSDFQALQRSLEDLVDRCRQSVQEHCTFSHQLLELRQWIVVTTQKLEAHRGEAGPGDAESQEAEFERLVAEFPEKEAQLSLVEAQGWLVMEKSSPEGAAVVQEELRELAESWRALRLLEESLLSLIRNWHLQRMEVDSGKKMVFTNNIPKSGFLINPMDPIPRHRRRANLLQEEEGSHEDFSQLLRNFGQWLQVENSKLVRIIAMRTSTAEDLRTRKSKLQELEARVPEGQHLFENLLRLGPARGTSDELEDLRYQWMLYKSKLKDSGHLLTQSSPGEPTGFQKTRRWRGLGSLFRRACCVALPLQLLLLLFLLLLFLLPIREEDRSCTLANNFARSFTLMLRYNGPPPT [SYNE3] | -0.89 | 0.336
8 | MTYAYLFKYIIIGDTGVGKSCLLLQFTDKRFQPVHDLTIGVEFGARMVNIDGKQIKLQIWDTAGQESFRSITRSYYRGAAGALLVYDITRRETFNHLTSWLEDARQHSSSNMVIMLIGNKSDLESRRDVKREEGEAFAREHGLIFMETSAKTACNVEEAFINTAKEIYRKIQQGLFDVHNEANGIKIGPQQSISTSVGPSASQRNSRDIGSNSGCC [RAB2B] | -0.221 | -0.115
